Paper PMC6415948

Target: Human IgG1 Fc, G0 N-glycan (agalactosylated, afucosylated) (human)
Experiment: SPR

Row | Kd [nM] | Substance
1 | 2.4 | CD16a (Fc γ receptor IIIa), wild type, Man5 glycoform
2 | 1.3 | CD16a N38Q/N74Q/N169Q following treatment with Endoglycosidase F1 (N-glycans truncated to a single (1)GlcNAc) (receptor)
3 | 1.7 | CD16a, wild type, following treatment with Endoglycosidase F1 (N-glycans truncated to a single (1)GlcNAc) (receptor)

Target: Human IgG1 Fc, G0F N-glycan (agalactosylated, core-fucosylated) (human)
Experiment: SPR

Row | Kd [nM] | Substance
4 | 18 | CD16a (Fc γ receptor IIIa), wild type, Man5 glycoform
5 | 360 | CD16a N38Q/N45Q/N74Q/N169Q, Man5 glycoform (receptor)
6 | 2.9 | CD16a N38Q/N74Q/N169Q following treatment with Endoglycosidase F1 (N-glycans truncated to a single (1)GlcNAc) (receptor)
7 | 3.7 | CD16a, wild type, following treatment with Endoglycosidase F1 (N-glycans truncated to a single (1)GlcNAc) (receptor)

Target: Human IgG1 Fc, G2F N-glycan (digalactosylated, core-fucosylated) (human)
Experiment: SPR

Row | Kd [nM] | Substance
8 | 9.9 | CD16a (Fc γ receptor IIIa), wild type, Man5 glycoform
9 | 1.6 | CD16a N38Q/N74Q/N169Q following treatment with Endoglycosidase F1 (N-glycans truncated to a single (1)GlcNAc) (receptor)
10 | 2 | CD16a, wild type, following treatment with Endoglycosidase F1 (N-glycans truncated to a single (1)GlcNAc) (receptor)

Target: Human IgG1 Fc, afucosylated, mixed N-glycans (G0, G1 and G2) (human)
Experiment: SPR

Row | Kd [nM] | Substance
11 | 2.5 | CD16a (Fc γ receptor IIIa), wild type, Man5 glycoform
12 | 4 | CD16a, wild type, Man9 glycoform (receptor)
13 | 38 | CD16a, wild type, complex-type glycoform (receptor)

Target: Human IgG1 Fc, fucosylated, mixed N-glycans (predominantly G0F/G1F/G2F) (human)
Experiment: SPR

Row | Kd [nM] | Substance
14 | 57 | CD16a (Fc γ receptor IIIa), wild type, Man5 glycoform
15 | 64 | CD16a, wild type, Man9 glycoform (receptor)
16 | 245 | CD16a, wild type, complex-type glycoform (receptor)
